Target: acetylcholine receptor
Assay: SPR, AchR immobilized on CM5 chip, peptide at 10 uM

Binder | Binding affinity (RU)
KRCNGR [6mer-1-853] | 30 RU
KKEAVR [6mer-1-854] | 16 RU
RKCDVR [6mer-1-855] | 15 RU
KRMWFK [6mer-1-856] | 30 RU
KRPAFK [6mer-1-857] | 14 RU
KKKHKR [6mer-1-858] | 27 RU
RKCMVK [6mer-1-859] | 27 RU
RKHWWR [6mer-1-860] | 22 RU
KRINIR [6mer-1-861] | 21 RU
KKHSEK [6mer-1-862] | 32 RU
RRCTER [6mer-1-863] | 27 RU
RRTWGR [6mer-1-864] | 32 RU
KKMTAR [6mer-1-865] | 21 RU
KWRSRR [6mer-2-335] | 153 RU
KLITKR [6mer-2-336] | 135 RU
KQFQKK [6mer-2-337] | 142 RU
RSVQKR [6mer-2-338] | 145 RU
KQVYKK [6mer-2-339] | 151 RU
RRLTRR [6mer-2-340] | 122 RU
KVVTKR [6mer-2-341] | 144 RU
KRYRKK [6mer-2-342] | 145 RU
KQISKK [6mer-2-343] | 146 RU
KGIRRK [6mer-2-344] | 148 RU
KSRQKK [6mer-2-345] | 148 RU
KRFSKK [6mer-2-346] | 153 RU
RRYSKK [6mer-2-347] | 148 RU

Binder | Binding affinity (RU)
KSQLRR [6mer-2-348] | 153 RU
RRLSRR [6mer-2-349] | 137 RU
RGQTRK [6mer-2-350] | 148 RU
KLYTKR [6mer-2-351] | 135 RU
RWFYRR [6mer-2-352] | 137 RU
RLQTKK [6mer-2-353] | 137 RU
RWISKK [6mer-2-354] | 135 RU
RGIRKK [6mer-2-355] | 124 RU
RLLQRR [6mer-2-356] | 145 RU
RGQRKK [6mer-2-357] | 151 RU
RQIYKK [6mer-2-358] | 154 RU
RLFCKK [6mer-2-359] | 136 RU
KGVRRR [6mer-2-360] | 141 RU
RSFQRR [6mer-2-361] | 153 RU
RGRQKR [6mer-2-362] | 154 RU
KSIYRK [6mer-2-363] | 147 RU
KVFTKK [6mer-2-364] | 154 RU
RWRYRR [6mer-2-365] | 121 RU
KQYYRR [6mer-2-366] | 142 RU
RWRSRR [6mer-2-367] | 142 RU
RLRTRR [6mer-2-368] | 142 RU
KVVRRR [6mer-2-369] | 145 RU
KSLLRR [6mer-2-370] | 142 RU
KRLSRR [6mer-2-371] | 148 RU
KLVQRR [6mer-2-372] | 141 RU
KLIYRK [6mer-2-373] | 139 RU

Binder | Binding affinity (RU)
KRQLKK [6mer-2-374] | 125 RU
RVVQKK [6mer-2-375] | 131 RU
KQQCKR [6mer-2-376] | 141 RU
RRYCRR [6mer-2-377] | 142 RU
KRFQRK [6mer-2-378] | 131 RU
RGVQKR [6mer-2-379] | 127 RU
RLVYRK [6mer-2-380] | 141 RU
KVYRRR [6mer-2-381] | 139 RU
KSVSRR [6mer-2-382] | 148 RU
KLVRRK [6mer-2-383] | 128 RU
RSFQKK [6mer-2-384] | 142 RU
RGVCKR [6mer-2-385] | 154 RU
KWQSKR [6mer-2-386] | 136 RU
KWLCKK [6mer-2-387] | 146 RU
KRFQKK [6mer-2-388] | 139 RU
KSLYKK [6mer-2-389] | 153 RU
KWLRRR [6mer-2-390] | 145 RU
KQYQKR [6mer-2-391] | 141 RU
RQILKR [6mer-2-392] | 149 RU
RGLQRK [6mer-2-393] | 145 RU
KLVLKR [6mer-2-394] | 141 RU
KWRYRR [6mer-2-395] | 148 RU
KWLQRR [6mer-2-396] | 122 RU
RSIYRK [6mer-2-397] | 154 RU
RQQRRR [6mer-2-398] | 141 RU
RWLTRR [6mer-2-399] | 148 RU

— patent publication US20250011363A1, “OPTIMIZED SHORTENED PEPTIDE THAT BINDS TO ACETYLCHOLINE RECEPTOR, AND USE THEREOF” (SKINMED CO., LTD., priority 2021, published 2025)
